Data as given in patent US20180030100A1.
One block for each molecule: values may come before it.

How the values were obtained:
[1] = target: Plexin A4 receptor expressed on transfected COS-7 cells; assay: AP-conjugated ligand binding curves on COS-7 cells expressing Plexin A4, estimated affinity (FIG. 4E)
[2] = target: Plexin A4 receptor expressed on transfected COS-7 cells; assay: cell-binding assay: AP-conjugated ligand on COS-7 cells expressing Plexin A4, p-nitrophenyl phosphate, absorbance at 405 nm [cont. 1). B]
[3] = target: Plexin A4 receptor expressed on transfected COS-7 cells; assay: AP-conjugated ligand on COS-7 cells expressing Plexin A4, cell-bound AP activity with p-nitrophenyl phosphate, Scatchard plot (FIG. 4C)
[4] = target: Nrp1 expressed on transfected COS cells; assay: AP-conjugated ligand on COS cells expressing Nrp1, cell-bound AP activity with p-nitrophenyl phosphate, binding curve (FIG. 4D)
[5] = target: PlexinA4 of human umbilical vein endothelial cells (human) (UniProt Q9HCM2); assay: cell-based or functional assay
UniProt Q9HCM2, sequence (Q9HCM2 24-1894): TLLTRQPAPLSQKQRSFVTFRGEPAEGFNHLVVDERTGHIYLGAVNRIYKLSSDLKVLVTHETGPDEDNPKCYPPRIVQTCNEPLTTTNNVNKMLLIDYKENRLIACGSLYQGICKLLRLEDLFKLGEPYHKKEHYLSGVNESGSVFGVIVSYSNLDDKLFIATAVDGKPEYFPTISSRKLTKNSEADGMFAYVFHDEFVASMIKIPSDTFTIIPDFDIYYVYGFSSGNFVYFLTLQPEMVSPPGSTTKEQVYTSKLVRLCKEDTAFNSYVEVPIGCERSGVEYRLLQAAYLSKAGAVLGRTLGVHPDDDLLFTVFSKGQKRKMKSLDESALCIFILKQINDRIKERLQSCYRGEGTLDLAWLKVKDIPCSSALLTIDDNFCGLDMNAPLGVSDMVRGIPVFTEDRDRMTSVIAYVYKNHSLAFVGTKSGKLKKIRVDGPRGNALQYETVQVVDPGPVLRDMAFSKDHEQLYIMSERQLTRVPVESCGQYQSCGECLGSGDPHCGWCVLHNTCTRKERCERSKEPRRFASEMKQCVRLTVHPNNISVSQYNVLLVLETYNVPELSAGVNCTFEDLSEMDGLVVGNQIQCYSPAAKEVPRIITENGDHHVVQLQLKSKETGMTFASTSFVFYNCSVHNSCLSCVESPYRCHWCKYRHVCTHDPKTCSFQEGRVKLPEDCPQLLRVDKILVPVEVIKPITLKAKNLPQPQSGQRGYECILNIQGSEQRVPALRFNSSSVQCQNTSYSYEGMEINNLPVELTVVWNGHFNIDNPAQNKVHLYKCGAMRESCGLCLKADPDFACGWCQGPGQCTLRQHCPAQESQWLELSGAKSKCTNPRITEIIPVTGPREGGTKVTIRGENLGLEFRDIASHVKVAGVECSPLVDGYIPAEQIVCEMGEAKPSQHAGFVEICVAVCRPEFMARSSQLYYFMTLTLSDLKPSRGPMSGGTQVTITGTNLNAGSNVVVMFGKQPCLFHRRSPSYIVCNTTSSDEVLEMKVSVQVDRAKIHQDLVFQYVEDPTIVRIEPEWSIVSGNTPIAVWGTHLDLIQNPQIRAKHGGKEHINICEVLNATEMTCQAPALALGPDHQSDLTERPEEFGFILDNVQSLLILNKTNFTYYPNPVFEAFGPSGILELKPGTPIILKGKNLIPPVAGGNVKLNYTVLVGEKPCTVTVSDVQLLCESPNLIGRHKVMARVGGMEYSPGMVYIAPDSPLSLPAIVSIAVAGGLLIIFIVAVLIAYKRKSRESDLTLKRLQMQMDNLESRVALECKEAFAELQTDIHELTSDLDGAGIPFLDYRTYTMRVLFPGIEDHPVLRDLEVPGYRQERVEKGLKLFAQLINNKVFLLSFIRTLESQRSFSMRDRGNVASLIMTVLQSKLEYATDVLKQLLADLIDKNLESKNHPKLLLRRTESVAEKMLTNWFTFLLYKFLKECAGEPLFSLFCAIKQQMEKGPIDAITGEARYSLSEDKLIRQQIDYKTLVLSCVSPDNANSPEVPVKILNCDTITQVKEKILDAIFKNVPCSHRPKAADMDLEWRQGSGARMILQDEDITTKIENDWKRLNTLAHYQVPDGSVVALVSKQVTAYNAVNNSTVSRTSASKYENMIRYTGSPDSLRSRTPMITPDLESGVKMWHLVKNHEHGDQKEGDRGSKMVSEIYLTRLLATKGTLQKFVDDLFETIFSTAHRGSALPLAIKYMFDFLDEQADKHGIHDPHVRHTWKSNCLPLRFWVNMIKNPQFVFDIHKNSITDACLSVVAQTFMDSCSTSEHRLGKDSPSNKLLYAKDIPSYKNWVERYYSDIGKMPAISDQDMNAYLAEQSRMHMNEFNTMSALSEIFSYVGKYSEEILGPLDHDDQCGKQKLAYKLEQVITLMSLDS

Molecule: alkaline phosphatase (AP)-conjugated mutant Sema3A ΔIg-b (from UniProt P05187 23-511) (ligand)
Kd [1]: 200 nM

B2: mouse Fc-tagged Sema3A A106K ΔIg-b (Fc fusion)
chain: NYANGKNNVPRLKLSYKEMLESNNVITFNGLANSSSYHTFLLDEERSRLYVGAKDHIFSFNLVNIKDFQKIVWPVSYTRRDECKWKGKDILKECANFIKVLEAYNQTHLYACGTGAFHPICTYIEVGHHPEDNIFKLQDSHFENGRGKSPYDPKLLTASLLIDGELYSGTAADFMGRDFAIFRTLGHHHPIRTEQHDSRWLNDPRFISAHLIPESDNPEDDKVYFFFRENAIDGEHSGKATHARIGQICKNDFGGHRSLVNKWTTFLKARLICSVPGPNGIDTHFDELQDVFLMNSKDPKNPIVYGVFTTSSNIFKGSAVCMYSMSDVRRVFLGPYAHRDGPNYQWVPYQGRVPYPRPGTCPSKTFGGFDSTKDLPDDVITFARSHPAMYNPVFPINNRPIMIKTDVNYQFTQIVVDRVDAEDGQYDVMFIGTDVGTVLKVVSVPKETWHDLEEVLLEEMTVFREPTTISAMELSTKQQQLYIGSTAGVAQLPLHRCDIYGKACAECCLARDPYCAWDGSSCSRYFPTGCKPCICTVPEVSSVFIFPPKPKDVLTITLTPKVTCVVVDISKDDPEVQFSWFVDDVEVHTAQTQPREEQFNSTFRSVSELPIMHQDWLNGKEFKCRVNSAAFPAPIEKTISKTKGRPKAPQVYTIPPPKEQMAKDKVSLTCMITDFFPEDITVEWQWNGQPAENYKNTQPIMDTDGSYFVYSKLNVQKSNWEAGNTFTCSVLHEGLHNHHTEKSLSHSPGK
Relative migration of ECs towards type I collagen at 3 h:45 m, 0.2 nM (xCELLigence) [5]: 60 % of control
Relative migration of ECs towards type I collagen at 3 h:45 m, 0.9 nM (xCELLigence) [5]: 64 % of control
Relative migration of ECs towards type I collagen at 3 h:45 m, 3.5 nM (xCELLigence) [5]: 55 % of control
activation of ERK 1/2 phosphorylation in ECs (Western blot, 15 minutes) [5]: 3.9 fold

Further molecules by falling Kd [1], results first:

Kd [1]: 7 nM
Kd [4]: 1.1 nM
B1: alkaline phosphatase (AP)-conjugated Sema3A WT (ligand, not shown: large carriers)
chain: NYANGKNNVPRLKLSYKEMLESNNVITFNGLANSSSYHTFLLDEERSRLYVGAKDHIFSFNLVNIKDFQKIVWPVSYTRRDECKWAGKDILKECANFIKVLEAYNQTHLYACGTGAFHPICTYIEVGHHPEDNIFKLQDSHFENGRGKSPYDPKLLTASLLIDGELYSGTAADFMGRDFAIFRTLGHHHPIRTEQHDSRWLNDPRFISAHLIPESDNPEDDKVYFFFRENAIDGEHSGKATHARIGQICKNDFGGHRSLVNKWTTFLKARLICSVPGPNGIDTHFDELQDVFLMNSKDPKNPIVYGVFTTSSNIFKGSAVCMYSMSDVRRVFLGPYAHRDGPNYQWVPYQGRVPYPRPGTCPSKTFGGFDSTKDLPDDVITFARSHPAMYNPVFPINNRPIMIKTDVNYQFTQIVVDRVDAEDGQYDVMFIGTDVGTVLKVVSVPKETWHDLEEVLLEEMTVFREPTTISAMELSTKQQQLYIGSTAGVAQLPLHRCDIYGKACAECCLARDPYCAWDGSSCSRYFPTAKRRTRRQDIRNGDPLTHCSDLQHHDNHHGPSLEERIIYGVENSSTFLECSPKSQRALVYWQFQRRNEDRKEEIRMGDHIIRTEQGLLLRSLQKKDSGNYLCHAVEHGFMQTLLKVTLEVIDTEHLEELLHKDDDGDGSKIKEMSSSMTPSQKVWYRDFMQLINHPNLNTMDEFCEQVWKRDRKQRRQRPGHSQGSSNKWKHMQESKKGRNRRTHEFERAPRSV

Kd [1]: 0.7 nM
EC50 (read off the curve) [2]: 0.5 nM
Kd [3]: 0.7 nM
Molecule: alkaline phosphatase (AP)-conjugated mutant Sema3A A106K ΔIg-b (from UniProt P05187 23-511) (ligand)
